The values that follow come from PMC10825690 (2023).

By Kd is commonly meant the free concentration of one partner at which half of the binding sites on the other are occupied at equilibrium, for simple one-to-one binding. A lower Kd goes with tighter binding.

This assay addresses acetylated bovine serum albumin (AcBSA) (Bos taurus, UniProt P02769). As to the kind of experiment: microscale thermophoresis. On the technique in general: In MST a laser heats a spot of the sample, and binding alters the fluorescence response.

acetylated bovine serum albumin (AcBSA), sequence (P02769 25-607): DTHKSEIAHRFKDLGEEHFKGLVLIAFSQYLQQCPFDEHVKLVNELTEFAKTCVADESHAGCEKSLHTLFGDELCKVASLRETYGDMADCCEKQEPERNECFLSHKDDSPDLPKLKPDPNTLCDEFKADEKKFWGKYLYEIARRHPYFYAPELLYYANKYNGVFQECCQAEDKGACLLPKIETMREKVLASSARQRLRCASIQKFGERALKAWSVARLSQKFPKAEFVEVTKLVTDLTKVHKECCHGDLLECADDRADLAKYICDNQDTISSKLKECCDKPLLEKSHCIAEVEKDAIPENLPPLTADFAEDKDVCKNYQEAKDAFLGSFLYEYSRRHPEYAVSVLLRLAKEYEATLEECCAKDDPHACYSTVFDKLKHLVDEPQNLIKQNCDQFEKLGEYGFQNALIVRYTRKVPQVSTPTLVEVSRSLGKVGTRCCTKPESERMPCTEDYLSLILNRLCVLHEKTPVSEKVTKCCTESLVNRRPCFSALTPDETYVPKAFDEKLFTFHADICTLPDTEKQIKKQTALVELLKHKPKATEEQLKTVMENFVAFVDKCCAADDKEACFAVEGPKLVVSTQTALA

B1: FIBCD1 236-461 (protein)
chain: ATGSRPRDCLDVLLSGQQDDGVYSVFPTHYPAGFQVYCDMRTDGGGWTVFQRREDGSVNFFRGWDAYRDGFGRLTGEHWLGLKRIHALTTQAAYELHVDLEDFENGTAYARYGSFGVGLFSVDPEEDGYPLTVADYSGTAGDSLLKHSGMRFTTKDRDSDHSENNCAAFYRGAWWYRNCHTSNLNGQYLRGAHASYADGVEWSSWTGWQYSLKFSEMKIRPVREDR
modifications: acetylated BSA, RED-NHS labeled FIBCD1, calcium
Consider B1, for which the Kd worked out at 53 nM.
